Here are results for one molecule from publication PMC5885637 (Journal of molecular biology, 2014).

This experiment concerns the target wild-type mouse PrP (residues 23-231) displayed on the yeast surface (Mus musculus, UniProt P04925). In words: flow cytometry on cells. On the technique in general: In flow cytometry, cells or beads pass a laser one at a time.

wild-type mouse PrP (residues 23-231) displayed on the yeast surface, sequence (P04925 23-231): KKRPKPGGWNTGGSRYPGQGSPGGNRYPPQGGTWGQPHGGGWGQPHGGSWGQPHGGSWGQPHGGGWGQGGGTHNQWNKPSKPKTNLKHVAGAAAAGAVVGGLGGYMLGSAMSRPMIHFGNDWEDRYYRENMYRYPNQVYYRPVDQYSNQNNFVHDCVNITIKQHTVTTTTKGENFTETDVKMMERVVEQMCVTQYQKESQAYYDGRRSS

B1: ICSM18-scFv (scFv, V domains shown)
VH: EVQLQQSGPELVKPGSSVKISCKASRNTFTDYNLDWVKQSHGKTLEWIGNVYPNNGVTGYNQKFRGKATLTVDKSSSTAYMELHSLTSEDSAVYYCALYYYDVSYWGQGTLVTVSS
VL: QIVLTQSPAIMSASPGEKVTMTCSASSSVSYMHWYQQKSGTSPKRWIYDTSKLASGVPARFSGSGSGTSYSLTISSMEAEDAATYFCHQWRSNPYTFGGGTKLEIK
B1: the equilibrium dissociation constant (Kd) was found to be 0.153 µM.

For orientation: Kd means the constant that tells how readily two partners part at equilibrium. A high value points to lower affinity.
